Experiment [1] has as its target human RhoA (residues 1-193) (human) (UniProt P61586). Description: ITC. In general terms: Isothermal titration calorimetry measures the heat released or taken up as one component is titrated into another.
Experiment [2] has as its target human Cdc42 (residues 1-191) (human) (UniProt P60953). Description: ITC.
For experiment [3], the target named is human RhoA (residues 1-193) (human) (UniProt P61586).
Experiment [4] addresses human Cdc42 (residues 1-191) (human) (UniProt P60953).
Experiment [5] concerns the target human RhoA (residues 1-193) (human) (UniProt P61586). The source holds these as a separate data set.
For experiment [6], the target named is human Cdc42 (residues 1-191) (human) (UniProt P60953). This is another data set of the same source.
The target of experiment [7] is human Rac1 (residues 1-192) (human) (UniProt P63000). Description: ITC.
Experiment [8] has as its target human RhoA (residues 1-193) (human) (UniProt P61586). Put plainly: ITC. This is another data set of the same source.
Experiment [9] concerns the target human Cdc42 (residues 1-191) (human) (UniProt P60953). Description: ITC. This is another data set of the same source.

Read-outs that look alike come from different tables or passages of the source. A value given as a limit tells only on which side of the number the result lay.

Sequence of UniProt P60953 (P60953 whole entry, the tested form may be a part): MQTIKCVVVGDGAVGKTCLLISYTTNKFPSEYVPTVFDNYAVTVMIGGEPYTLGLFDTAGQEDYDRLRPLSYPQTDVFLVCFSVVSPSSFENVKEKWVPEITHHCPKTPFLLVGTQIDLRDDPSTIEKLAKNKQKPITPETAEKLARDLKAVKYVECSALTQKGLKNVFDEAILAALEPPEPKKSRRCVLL
Sequence of UniProt P61586 (P61586 whole entry, the tested form may be a part): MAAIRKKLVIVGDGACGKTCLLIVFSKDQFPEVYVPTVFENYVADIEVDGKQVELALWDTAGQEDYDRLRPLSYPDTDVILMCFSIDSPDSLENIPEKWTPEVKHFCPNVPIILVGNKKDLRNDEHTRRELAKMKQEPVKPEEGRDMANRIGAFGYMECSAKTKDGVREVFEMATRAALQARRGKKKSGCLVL

In experiment [1], GAP^Graf R266A (domain or fragment) had a Ka of 93000 M⁻¹ and a dH of 10.3 kcal/mol. In [2], this substance had a Ka of 773000 M⁻¹ and a dH of 13.8 kcal/mol. Besides, in experiment [3], the KM of GAP-stimulated GTP hydrolysis (MESG/PNP assay), GTP·Mg2+-loaded RhoA is 25 µM and the kcat/KM of GAP-stimulated GTP hydrolysis (MESG/PNP assay), GTP·Mg2+-loaded RhoA was found to be 48300 M⁻¹ s⁻¹. In experiment [4], the KM of GAP-stimulated GTP hydrolysis (MESG/PNP assay), GTP·Mg2+-loaded Cdc42 turned out to be 11 µM and the kcat/KM of GAP-stimulated GTP hydrolysis (MESG/PNP assay), GTP·Mg2+-loaded Cdc42 was 278000 M⁻¹ s⁻¹.

In experiment [1], GAP^Graf V224K (domain or fragment) displayed a Ka of 338000 M⁻¹ and a dH of 16.8 kcal/mol. Besides, in experiment [2], the Ka amounted to 92000 M⁻¹ and the dH was found to be 10.5 kcal/mol. Also, the KM of GAP-stimulated GTP hydrolysis (MESG/PNP assay), GTP·Mg2+-loaded RhoA in [3] was 10.3 µM. In experiment [4], the KM of GAP-stimulated GTP hydrolysis (MESG/PNP assay), GTP·Mg2+-loaded Cdc42 is 10.2 µM and the kcat/KM of GAP-stimulated GTP hydrolysis (MESG/PNP assay), GTP·Mg2+-loaded Cdc42 was 457000 M⁻¹ s⁻¹.

With GAP^Graf V338L (domain or fragment), in experiment [1], the Ka is 220000 M⁻¹ and the dH came to 9.8 kcal/mol. Also, in experiment [2], the Ka amounted to 1.18e+06 M⁻¹ and the dH came to 15.9 kcal/mol. Besides, in [3], the KM of GAP-stimulated GTP hydrolysis (MESG/PNP assay), GTP·Mg2+-loaded RhoA stood at 8.7 µM and the kcat/KM of GAP-stimulated GTP hydrolysis (MESG/PNP assay), GTP·Mg2+-loaded RhoA was 33300 M⁻¹ s⁻¹. In addition, in experiment [4], the KM of GAP-stimulated GTP hydrolysis (MESG/PNP assay), GTP·Mg2+-loaded Cdc42 came out at 2.4 µM and the kcat/KM of GAP-stimulated GTP hydrolysis (MESG/PNP assay), GTP·Mg2+-loaded Cdc42 was determined as 522000 M⁻¹ s⁻¹.

With GAP^Graf I358E (domain or fragment), in [1], the Ka came to 33000 M⁻¹ and the dH worked out at 3.92 kcal/mol. Further, in experiment [2], the Ka was 97000 M⁻¹ and the dH worked out at 4.64 kcal/mol. Further, the KM of GAP-stimulated GTP hydrolysis (MESG/PNP assay), GTP·Mg2+-loaded Cdc42 in experiment [4] was 12.4 µM.

As for GAP^Graf N225A (domain or fragment), in experiment [1], the Ka is 303000 M⁻¹ and the dH was found to be 10.7 kcal/mol. In experiment [2], the Ka is 1.56e+06 M⁻¹ and the dH was found to be 9.85 kcal/mol. For the same substance, in [3], the KM of GAP-stimulated GTP hydrolysis (MESG/PNP assay), GTP·Mg2+-loaded RhoA was found to be 24.4 µM and the kcat/KM of GAP-stimulated GTP hydrolysis (MESG/PNP assay), GTP·Mg2+-loaded RhoA is 205000 M⁻¹ s⁻¹. Besides, in [4], the KM of GAP-stimulated GTP hydrolysis (MESG/PNP assay), GTP·Mg2+-loaded Cdc42 was determined as 8 µM and the kcat/KM of GAP-stimulated GTP hydrolysis (MESG/PNP assay), GTP·Mg2+-loaded Cdc42 worked out at 205000 M⁻¹ s⁻¹.

In experiment [1], GAP^Graf E253K (domain or fragment) registered a Ka of 643000 M⁻¹ and a dH of 12 kcal/mol. In [2], this substance registered a Ka of 445000 M⁻¹ and a dH of 10.5 kcal/mol. In [3], the KM of GAP-stimulated GTP hydrolysis (MESG/PNP assay), GTP·Mg2+-loaded RhoA was found to be 8.8 µM and the kcat/KM of GAP-stimulated GTP hydrolysis (MESG/PNP assay), GTP·Mg2+-loaded RhoA was 413000 M⁻¹ s⁻¹. Further, in experiment [4], the KM of GAP-stimulated GTP hydrolysis (MESG/PNP assay), GTP·Mg2+-loaded Cdc42 turned out to be 10.2 µM and the kcat/KM of GAP-stimulated GTP hydrolysis (MESG/PNP assay), GTP·Mg2+-loaded Cdc42 was 457000 M⁻¹ s⁻¹.

Turning to GAP^Graf I358A (domain or fragment), in [1], the Ka came out at 255000 M⁻¹ and the dH was found to be 14.4 kcal/mol. In experiment [2], this substance yielded a Ka of 946000 M⁻¹ and a dH of 14 kcal/mol. Moreover, in [3], the KM of GAP-stimulated GTP hydrolysis (MESG/PNP assay), GTP·Mg2+-loaded RhoA is 18.2 µM and the kcat/KM of GAP-stimulated GTP hydrolysis (MESG/PNP assay), GTP·Mg2+-loaded RhoA is 41700 M⁻¹ s⁻¹. Moreover, in experiment [4], the KM of GAP-stimulated GTP hydrolysis (MESG/PNP assay), GTP·Mg2+-loaded Cdc42 is 15 µM and the kcat/KM of GAP-stimulated GTP hydrolysis (MESG/PNP assay), GTP·Mg2+-loaded Cdc42 was 333000 M⁻¹ s⁻¹.

Consider GAP^Graf E253A (domain or fragment), for which, in experiment [1], the Ka stood at 456000 M⁻¹ and the dH worked out at 10.1 kcal/mol. In experiment [2], this substance had a Ka of 298000 M⁻¹ and a dH of 7.48 kcal/mol. Besides, in experiment [3], the KM of GAP-stimulated GTP hydrolysis (MESG/PNP assay), GTP·Mg2+-loaded RhoA stood at 11.3 µM and the kcat/KM of GAP-stimulated GTP hydrolysis (MESG/PNP assay), GTP·Mg2+-loaded RhoA came out at 330000 M⁻¹ s⁻¹. In experiment [4], the KM of GAP-stimulated GTP hydrolysis (MESG/PNP assay), GTP·Mg2+-loaded Cdc42 is 19.9 µM and the kcat/KM of GAP-stimulated GTP hydrolysis (MESG/PNP assay), GTP·Mg2+-loaded Cdc42 was 532000 M⁻¹ s⁻¹.

In general, stoichiometry N refers to the number of molecules, sites or subunits per partner or assembly. With “GAP domain of Graf (GTPase Regulator Associated with Focal Adhesion Kinase), wild type (domain or fragment)”, in experiment [5], the KM of GAP-stimulated GTP hydrolysis (MESG/PNP assay), GTP·Mg2+-loaded RhoA worked out at 6.8 µM; the kcat of GAP-stimulated GTP hydrolysis (MESG/PNP assay), GTP·Mg2+-loaded RhoA turned out to be 1.46 s⁻¹; the kcat/KM of GAP-stimulated GTP hydrolysis (MESG/PNP assay), GTP·Mg2+-loaded RhoA came out at 217000 M⁻¹ s⁻¹. Besides, in [6], the kcat of GAP-stimulated GTP hydrolysis (MESG/PNP assay), GTP·Mg2+-loaded Cdc42 is 3.65 s⁻¹. In experiment [7], the fold lower KA than for Cdc42 (m1 with m18) amounted to 100 fold and the fold lower KA than for RhoA (m1 with m19) is > 20 fold. Further, in experiment [1], the Ka is 554000 M⁻¹, the dH worked out at 13 kcal/mol and the stoichiometry N stood at 1. Besides, in experiment [2], the Ka was 2.42e+06 M⁻¹, the dH turned out to be 15 kcal/mol and the stoichiometry N worked out at 1. In experiment [8], this substance returned a Ka of 33800 M⁻¹ and a dH of 1.6 kcal/mol. In experiment [9], this substance had a Ka of 26100 M⁻¹ and a dH of 5.47 kcal/mol.

GAP^Graf V338A (domain or fragment): in experiment [1], the Ka stood at 93000 M⁻¹ and the dH worked out at 14.5 kcal/mol. In experiment [2], this substance showed a Ka of 203000 M⁻¹ and a dH of 16.9 kcal/mol. In addition, in [3], the KM of GAP-stimulated GTP hydrolysis (MESG/PNP assay), GTP·Mg2+-loaded RhoA is 31.3 µM and the kcat/KM of GAP-stimulated GTP hydrolysis (MESG/PNP assay), GTP·Mg2+-loaded RhoA came to 26700 M⁻¹ s⁻¹. In [4], the KM of GAP-stimulated GTP hydrolysis (MESG/PNP assay), GTP·Mg2+-loaded Cdc42 was 5.9 µM and the kcat/KM of GAP-stimulated GTP hydrolysis (MESG/PNP assay), GTP·Mg2+-loaded Cdc42 came out at 243000 M⁻¹ s⁻¹.
